Data reported in a protein production outcome set (Wang et al. 2014).

Assay: label from the status in PepcDB records
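Note: failed if final PepcDB status was selected cloned or expressed and not failed if soluble or beyond.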

Sequence | protein production
MNTRNFSLPQLQNLPIEEARIVADALAVHATSRQIDSAASKLAALAEAGLKGDRQAYAAYQQLLYVLSLSDDVATAQTRRWLARAIYRVEERFMPAADLSRALSEEDFQKRLEQEIAAQSRERHPMSQYVFSGSASRAQLQVFLRHQWFRTFRLYRDAADLLVNLTDVDEAAALARYLYGELGEEDEKGSHPRLLAKLLEAIGLEADFQAVSTMPEEIAYLNNRARAFRHAEVGWGLAVFYITELVVPGNHEKLYRALLQAGLSEDQAEYYKVHISLVPPRAKREWQLIARRIPDVQFQNAFLTSLSQHFRVERAYYDAIWEEMQSVK | not failed
TYHRLALQRENASLNPVGQMVAVNGYKISVFVKGQGSQTLVFLSGAGTASPILDFKDVYDGFSKEYKIVVVERADYGYSEDTSKSRDVSVILSETRQSLAKSQVSGPYIILSHSMASLETLLWQENYPSEVKAVVCLDWAFPESYFQLKRHPQMLRLARWESQLGLLRLLPRQLYMPNENLSDSDRRLYQEIAYRQLLSQAMLNESLCAKENDKKVNSTSIKSQMPVLLMVSNGKGTGFGQEQWRHYATSFAKGQKNMEVTYYDSPHYFYHYQTKEMIRSIEEFVQE | failed
MSKKIRNTEVDHLFDAILTLENKEECYTFFEDVCTVNELLSISQRYEVAKMLREGKTYLDISNATGASTATISRVNRSLNYGNDGYDMVLERVLKKDE | not failed
MQTNLLSRPTSAKSTSMSDKINHPQLCQWLESVAISRDKQAFTHLFQFFAPKILRIARGKFPNEAQANEVVQDTMSNVWRKAHLYNQDKGAATTWVYTVMRNVTFDMLRKIQGNKEDNLSDDIWPIAESMSIENEIFDDHLEHANLLSVIEELPQAQQDVVKGFYFREMSQEQLAVHLHLPLGTVKSRLRLALGKLKVQLGEKHD | failed
MEVYTTENEQVDVLRRFLAENGKALVVGVVLGVGALVGWRFWQSHQNDSVQAASASYQQVTEQLAEGKAEAIASTEKFTAENKNTYGALASLELARHYVDQKDFAKAVQQLVQAQSQTKDADLLAVVNLRLARVQLQENKADDALKTLDAIKLEGWASQAAEVRGDILASKGDNQAARDAYNKGLSSNPSQAQQALLRMKLNNLSS | failed
MGKGKSAIESQIRMLKLAKEIVEEVASSFPNLEEVYIFGSRARGDYLDTSDIDILFVFKGIKEMNVFDRMYMVSRFIRGNVDYIVLDEGEKDRVKDKVLFWKREKGFVLL | not failed
MHMLFYKSYVREFIGEFLGTFVLMFLGEGATANFHTTGLSGDWYKLCLGWGLAVFFGILVSAKLSGAHLNLAVSIGLSSINKFDLKKIPVYFFAQLLGAFVGTSTVYGLYHGFISNSKIPQFAWETSRNPSISLTGAFFNELILTGILLLVILVVVDENICGKFHILKLSSVVGLIILCIGITFGGNTGFALNPSRDLGSRFLSLIAYGKDTFTKDNFYFWVPLVAPCVGSVVFCQFYDKVICPLVDLANNEKDGVDL | not failed
MPLVSVVMPVYNSAATLGAAVRSVLTQTHGDLELLVTDDQSSDGSMDLLREFAAQDERVLPRSSPERGGAGRARNLAIERARGDYVAFLDSDDMWLPEKTEKQLAFAAEGTAPLTFTSYFKMDADHDGESTDWVPNGRVIRAREHVDYRAMLVQDHIGALTAMYDRNVLGTRLMPEMRKRQDYALWLSIMRDGADARGLAEPLAVYRAHQAGSLSSNKLSLVEYNWALYREHENLSVPRATRALAGAVWQSLRNSRILEHHHHHH | failed
MKRSLRVGSVAGIGIFLHWTFLLLVAAIFAYYYVQSQSLGAALSGMGLILGVFVCVILHELGHALTARRFGVPTRSITLYPIGGLARLERIPSEPMKEFWIAIGGPAVNVVIAFALALVLLVTGGTLAPVALEAPGSHALASLMWINAVLAVFNMLPAFPMDGGRVLRALLALRWDYAQATQTAANVGQGMAVLFGLIGIMTWNPVLLFIALFVYVGAQQESKQAMYRAFTEGTPVREAMVTRFATLTVDDTLDDAVDALLAGTDHDFPVLEAGTVVGLLRRKQLIQALSEHGRDTPVAEVADADCFTTAPSAPLDEVFQQMNARSCSTVPVVDGGQLVGLLTLENVGELIMVSSALETRSHSRVPRDQLSEAPLRERPDGAASSGAPPVP | failed
MTNPGDGAAGAADRATLDHWRPRLAAIAAAAGQDDAAHDLGHLRRVWDAARAMLQAHPEADALVVLAASYLHDLVNLPKNHPERHLASRQAAAAARERLARAGFPAARLDAVAHAIEAHSFSAGIAPRTIEARIVQDADRLDALGPVGLVRMFHVGGSLGRALAHPSDPLAAQRALDDSRYTLDHIEAKLARLPHGMQTEAGRRLGEQRLAWLRDFRAAFSAQWGGGQLRLEHHHHHH | failed
MIKGEQKRYSEMTKEELQQEIAMLTEKARKAEQMGMVNEYAVYERKIAMAKAYMLNPADFHPGEIYEIEGAPGEYFKVRYLKGVFAWGWRLKGNGEEEALPISLLRKPNLPQS | not failed
ASDFQTGIHKIVIQQSGDTDSFEVSVSIGGADKGGPAKLYNDKGEYIGDSYSAQIRTATMSCCTNGNAFFMTCAGSVSSISEAGKRLHITVIGYIDDKEVNRLEKEYITDGNTLIETFSVSTKEI | not failed
MEWLEQLLGKEWSLVPAGGVTGDAYIAQNGQQKLFLKRNTSPFLAVLSAEGIVPKLLWTRRVTNGDVISAQKWLPGQKLEPEDMKLERVAKLLKKIHSSKALVQMIQRLGKQPLHAQELLQQLQLVLRGDIRDEETIQQGLQYLMDSLKDIEYNEFVVCHCDVNHNNWLLSDEDELFLIDWDGAVIADPALDLGMLLYWYIPRQEWSEWLGYYDIEMDESLLKRMRWYVIAQTILSIQWHTTKKQQAEAEYWHQYLQQLLASE | failed
MRDHVEIGIGREARRTYSLDDISVVSSRRTRSSKDVDTTWHIDAYKFDLPFMNHPSDALASPEFVIEMGKQGGLGVINAEGLWGRHADLDEAIAKVIAAYEEGDQAAATRTLQELHAAPLDTELLSERIAQVRDSGEIVAVRVSPQNVREIAPIVIKAGADLLVIQGTLISAEHVNTGGEALNLKEFIGSLDVPVIAGGVNDYTTALHMMRTGAVGIIVGGGENTNSLALGMEVSMATAIADVAAARRDYLDETGGRYVHIIADGSIENSGDVVKAIACGADAVVLGSPLARAEEAAGKGYFWPAVAAHPRFPRGVVTESVDLDEAAPSLEQILHGPSTMPWGVENFEGGLKRALAKCGYTDLKSFQKVSLHVN | not failed
MMAKLVVCIIDGMADPPPPAGGVTPLAAAHTPHCDTLARHSVAGLCHVIQPEAVPGSEAGLSALLCCEAAASIARGPVEALAQGDPVAPHETVWRLNLVSLGPRGNYYNPAPLLDAATETAARKMLDRALGTQGYSLLGGKGFRHLCAGTEPPVLRDGPQDVCGMTPDTGQADLNSYCPRLARAMTEANVLFRRSRMDLAVWPWGAGTMPDLPGFAETTGQTGALAGGVPLARGLALALGMTAPSIAGATGGIDTDLGAKTRAAIALAAGHDVVYLHVEAPDLHAHALDRVAKRRAIERIDAEVVGPLHMALPDATLLITCDHATDCATGRHMAIPVPFILHKPDGPQDGIATFSEAASARTGIRIDSAATLVRLALADLEHHHHHH | not failed
MKFSKLADQVWGEEPDDQVRSFVFMSNLDAQETANTMDVSVSVERIHADLCGNTELASELHYTPDEWDEAQGWVKINYPLIDDTASASLDVVLDATFQPLPGQPFEGEALTLIDALLHHAENVAASNPWKRTTFHTAHMHPPGSNADCDYCLVLQRRGYVKAHEEIQQTIPLPSGDWSAGEFTVVDVEGTAFPSALIPSIVELQHRAALDVPHGNLSVAPAQWDEHRLAQQSERILKTGTKLFTVLFAEGSTVAAMSSIAIPPGSNPDIAEQGLTIVHPDFRGRGLGTAVKLAGLSLLSRCHPEIQRVATSNAVDNHAMLAINRSIGATEIARTTLWEKKL | failed
MARMGGKKHLKALVAPKFWPILRKEYKWAVKPSPGPHPIERCFPLLIIVRDILGYAKTAREARKLISEGHFKVDGRVRKNYKYPVGLMDVIEIVDTGETYRVIPVPVKVLGLIEIDKEEAKYKLSRIENKTTVKGGHIQLNLHDGRNVLIKVSDPKNPVEDIYKTLGTLQISIPEQQILNYIPLDEGTLVIISGGRNVGRVGKVVSIHKGIRRHRSIVTIEDKHGNKFQTSLTYVFPIGKEEPLIKLPEGAW | failed
MKDKIIDNAITLFSEKGYDGTTLDDIAKSVNIKKASLYYHFDSKKSIYEQSVKCCFDYLNNIIMMNQNKSNYSIDALYQFLFEFIFDIEERYIRMYVQLSNTPEEFSGNIYGQIQDLNQSLSKEIAKFYDESKIKMTKEDFQNLILLFLESWYLKASFSQKFGAVEESKSQFKDEVYSLLNIFLKK | failed
MGWKMQATVTEIGKHAIDDSEKMIILFGETATDTLKQHAVIQSFPEKDQVTLAEGDHLKIGDTNYTITKVGSFANSNLQSIAHSTLIFADAPTDEDDVIRNGVYLTPHQLPKITIGTTIDYLVNGA | not failed
MLTFEKVLEIFADYLAADKTIEVYISRHGCVRVEFDQDFHYCTGEVCHTPRKLFDLLSDDYQTYLEIELTKGRRELTEDDIKEADTLCKRYLDRWKEELGLEHHHHHH | not failed
MLGLGVDRLQADINRLLASLFHQGVLDEQFLQLQQLQDETSPNFVYDVINIYFDESEKLLRNLRLLLMDREFSDYKKIGLHLNQLVGSSSSIGARRVRNVCVAFRSASELSNRPGCLRGLEVVEHEYHYLKNMMHELFQWLQLEQQRILAAGVRYPM | failed
MSSDCLNVSYPATGCQKLFEVVDEHKLRVFYEKRMGQVVEADILGDEWKGYQLRIAGGNDKQGFPMKQGVLTHGRVRLLLKKGHSCYRPRRTGERKRKSVRGCIVDANMSVLALVVLKKGEKDIPGLTDTTIPRRLGPKRASKIRKLYNLSKEDDVRRFVVRRPLPAKDNKKATSKAPKIQRLITPVVLQRKHRRIALKKKRQIASKEASADYAKLLVQRKKESKAKREEAKRRRSASIRESKSSVSSDKK | failed
MLLSPNLLAEGQSRYISDNVFLYLLNGPGTDYRILGSIEAGQPITLQGETQGDYSKIVDHKGREGWVQTNLISSTPSFREQVSTLTNELNEAKAKLAEVLNSTGNQTDEVAELKAQLAEAQTMLAKANQERENLKMAVDHSAQETQFALWREGGIIAAAGLVVGVILVYLPRPQRRNKKRWMLEHHHHHH | failed
MSRAGRIAAETRAAWYAFVRRRTAVFFTFFFPVILILIFGALVGTDPTGGGLFAEPAGYYVAGYLAVVVLFTPLSRVGSEVARHRSGNRFEKLATTPLSRAEWLFAQTLVNVVVIGLASLLILGLVLLVTDAAFTFSLLVVPYVALGVALFCGLGAILGRIADSQDGAIAASNGIAIPLLFLSETFVPPALLPEWFVPLLDLSPLTYFARGLRAATYEPVANTGGTGLVGSDPYLNLVVLAAGAVVFFAAGAYALPRTD | failed
TCIYKLADTVSDEYSLQKIIDFLSSTPQGKQAFQKRPQLGVVDLPKLHQLPTDTLGYVYADQMLQNNLQPLQSHEIDNDYQFFKTHITETHDLWHIVTGADTSILGEIQLEAFYVSQLYASRFWLALLAKNLLKAVIYDIELSTPYMDAISTGWVMAKQAKPLFGLEWNLLWEKPLADVRTSLNIILP | failed
MDGQQLNRLLLEWIGAWDPFGLGKDAYDVEAASVLQAVYETEDARTLAARIQSIYEFAFDEPIPFPHCLKLARRLLELKQAASCPLP | not failed
MKKLLVIRNDKIGDFMLCFPAFMMLKQSMPNIEITALVPNYTAPLAELCPAIDHLIIDNTDKQDPIAFKQVQQAVQNGQFDAVICFVSSWYNAKLTWQSGIRYRLAPATKLFQFLYNHRLTQRRSQSIKAESEYNLDLARAFLIDHHMMPVEPQLEHHHHHH | not failed
MPLIVSSSIMIHAKLIYTFEDAQLDGQIVAALDVNTVANAVYAHNYGSNLVKTRNIQSLSVKEVTKLQANMLLMSPPCQPHTRQGLQRDTEDKRSDALTH | failed
